B1: SNAP91 (parent)
chain: FAQPMMRPPFGAAAVPGTQLSPSP
B2: ZC3H15 (parent)
chain: ENLFTGEDLDELEEELNTLDLEE

Variants of: B1
Test: protein stability index of a GFP-peptide fusion (GPS, HEK-293T) (PSI 1-6); higher = more stable
Details: c terminus: a fixed tail appended
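Also: lentivirally expressed fusions sorted by FACS into six bins by GFP to DsRed ratio, PSI derived from sequencing read proportions per bin multiplied by bin number.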

| Variant | protein stability index |
| --- | --- |
| M6V | 3.87 |
| M6T | 3.68 |
| M6W | 2.61 |
| M6I | 3.77 |
| M6D | 3.46 |
| M6N | 3.19 |
| M6E | 3.6 |
| M6H | 4.01 |
| M6Q | 3.9 |
| M6A | 2.89 |
| M6P | 3.62 |
| M6C | 2.76 |
| M6F | 3.14 |
| M6S | 3.1 |
| M6L | 3.13 |
| M6G | 3.01 |
| M6K | 3.65 |
| M6R | 3.1 |
| M6Y | 2.88 |
| P4K | 1.97 |
| P4W | 1.83 |
| P4E | 2.77 |
| P4F | 1.44 |
| P4V | 2.33 |

| Variant | protein stability index |
| --- | --- |
| P4C | 2.48 |
| P4Y | 1.83 |
| P4Q | 2.02 |
| P4L | 1.65 |
| P4D | 2.7 |
| P4S | 2.26 |
| P4M | 1.61 |
| P4G | 2.01 |
| P4N | 2.36 |
| P4R | 2.54 |
| P4A | 2.05 |
| P4T | 2.53 |
| P4H | 2.75 |
| P4I | 1.96 |
| F1H | 4.02 |
| F1Y | 2.24 |
| F1L | 3.59 |
| F1W | 3.41 |
| F1D | 4.55 |
| F1N | 4.53 |
| F1C | 3.3 |
| F1V | 4.42 |
| F1S | 4.11 |
| F1Q | 4.66 |

| Variant | protein stability index |
| --- | --- |
| F1I | 4.02 |
| F1M | 4.26 |
| F1T | 4.53 |
| F1E | 4.68 |
| F1K | 4.28 |
| F1P | 4.75 |
| F1R | 4.19 |
| F1A | 4.67 |
| F1G | 4.5 |
| R7G | 2.23 |
| R7D | 3.13 |
| R7E | 3.22 |
| R7F | 1.55 |
| R7Q | 2.62 |
| R7T | 2.67 |
| R7L | 2.38 |
| R7C | 2.3 |
| R7W | 1.7 |
| R7M | 2.42 |
| R7S | 3.32 |
| R7A | 3.55 |
| R7P | 2.87 |
| R7N | 2.92 |
| R7Y | 1.89 |

| Variant | protein stability index |
| --- | --- |
| R7K | 3.34 |
| R7V | 2.49 |
| R7I | 2.4 |
| R7H | 2.81 |
| P9Q | 3.91 |
| P9G | 3.45 |
| P9N | 3.14 |
| P9C | 3.06 |
| P9E | 3.94 |
| P9I | 2.57 |
| P9H | 3.52 |
| P9L | 1.91 |
| P9A | 3.51 |
| P9K | 2.71 |
| P9M | 3.1 |
| P9S | 3.75 |
| P9F | 1.63 |
| P9R | 3.77 |
| P9D | 4.04 |
| A2R | 3.85 |
| A2H | 2.27 |
| A2M | 3.62 |
| A2Q | 3.33 |
| A2N | 4.59 |

| Variant | protein stability index |
| --- | --- |
| A2G | 3.52 |
| A2K | 3.84 |
| A2W | 2.45 |
| A2Y | 3.56 |
| A2I | 1.94 |
| A2L | 2.62 |
| A2F | 2.96 |
| A2V | 1.71 |
| A2S | 3.81 |
| A2T | 3.09 |
| A2E | 4.45 |
| A2D | 4.69 |
| A2C | 2.73 |
| A2P | 3.72 |
| Q3I | 2.55 |
| Q3Y | 1.82 |
| Q3A | 3.3 |
| Q3S | 3.61 |
| Q3R | 3.42 |
| Q3T | 3.56 |
| Q3V | 3.45 |
| Q3D | 2.12 |
| Q3M | 2.93 |
| Q3K | 3.32 |

| Variant | protein stability index |
| --- | --- |
| Q3F | 3.04 |
| Q3W | 2.32 |
| Q3G | 2.8 |
| Q3N | 2.98 |
| Q3E | 2.17 |
| Q3L | 3.01 |
| Q3H | 2.86 |
| Q3C | 2.58 |
| M5D | 3.52 |
| M5C | 2.68 |
| M5G | 2.77 |
| M5A | 3.49 |
| M5N | 3.22 |
| M5F | 2.54 |
| M5S | 3.31 |
| M5E | 3.61 |
| M5V | 3.01 |
| M5I | 2.59 |
| M5W | 1.96 |
| M5T | 3.07 |
| M5Q | 3.48 |
| M5R | 4.15 |
| M5L | 3.4 |
| M5P | 4.01 |

| Variant | protein stability index |
| --- | --- |
| M5H | 2.86 |
| M5Y | 2.64 |
| M5K | 2.61 |
| P8V | 3.11 |
| P8L | 2.87 |
| P8H | 3.16 |
| P8T | 3.02 |
| P8R | 3.03 |
| P8N | 2.98 |
| P8M | 3.01 |
| P8A | 3.82 |
| P8F | 2.97 |
| P8Q | 3.36 |
| P8W | 2.64 |
| P8E | 3.75 |
| P8G | 2.97 |
| P8K | 2.97 |
| P8S | 2.96 |
| P8Y | 2.79 |
| P8C | 2.39 |
| P8I | 2.49 |
| P8D | 3.5 |

Variants of: B2
Test: as above
Details: c terminus: native

| Variant | protein stability index |
| --- | --- |
| E23N | 5.51 |
| E23L | 5.73 |
| E23Q | 4.97 |
| E23D | 5.47 |
| E23F | 5.07 |
| E23R | 3.26 |
| E23A | 5.96 |
| E23Y | 5.58 |
| E23K | 5.61 |
| E23M | 4.61 |
| E23G | 5.05 |
| E23H | 5.42 |
| E23S | 5.89 |
| E23V | 5.29 |
| E23I | 5.81 |
| E23P | 5.67 |
| E23W | 5.54 |
| E15W | 4.08 |
| E15D | 3.74 |
| E15T | 5.01 |
| E15A | 4.94 |
| E15Q | 4.93 |
| E15F | 3.37 |
| E15M | 3.88 |

| Variant | protein stability index |
| --- | --- |
| E15N | 4.61 |
| E15V | 3.09 |
| E15G | 5.2 |
| E15L | 3.29 |
| E15Y | 3.4 |
| E15S | 5.18 |
| E15I | 4.04 |
| E15P | 3.14 |
| E15R | 5.29 |
| E15H | 4.29 |
| E15K | 5.54 |
| E13W | 3.48 |
| E13S | 5.36 |
| E13V | 4.83 |
| E13Y | 4.11 |
| E13T | 4.6 |
| N17I | 3.3 |
| N17W | 2.69 |
| N17E | 4.89 |
| N17S | 4.45 |
| N17K | 5.18 |
| N17Q | 4.06 |
| N17R | 5.04 |
| N17M | 3.5 |

| Variant | protein stability index |
| --- | --- |
| N17H | 3.71 |
| N17F | 2.5 |
| N17T | 3.66 |
| N17C | 3.64 |
| N17Y | 3.79 |
| N17V | 3.5 |
| N17A | 4.7 |
| N17D | 4.65 |
| D20R | 5.48 |
| D20G | 5.35 |
| D20W | 4.2 |
| D20S | 5.25 |
| D20Y | 5.22 |
| D20N | 4.67 |
| D20H | 4.87 |
| D20A | 4.55 |
| D20M | 3.71 |
| D20V | 4.99 |
| D20K | 5.11 |
| D20F | 4.85 |
| D20C | 5.38 |
| D20E | 4.52 |
| D20P | 3.12 |
| D20T | 5.39 |

| Variant | protein stability index |
| --- | --- |
| E14N | 4.37 |
| E14P | 3.42 |
| E14V | 3.65 |
| E14W | 3.7 |
| E14T | 4.12 |
| E14Q | 4.56 |
| E14S | 4.85 |
| E14G | 3.47 |
| E14A | 5.01 |
| E14I | 3.3 |
| E14Y | 4.33 |
| E14K | 5.14 |
| E14D | 4.74 |
| E14H | 5.05 |
| E14C | 3.99 |
| E14M | 3.55 |
| E14F | 2.95 |
| T18Q | 5.2 |
| T18C | 4.8 |
| T18D | 4.24 |
| T18V | 3.58 |
| T18R | 4.26 |
| T18S | 5.05 |
| T18H | 4.81 |

| Variant | protein stability index |
| --- | --- |
| T18A | 4.22 |
| T18K | 5.53 |
| T18W | 3.31 |
| T18L | 4.96 |
| T18P | 2.54 |
| T18N | 5.31 |
| L16P | 3.32 |
| L16G | 4.11 |
| L16F | 4.87 |
| L16R | 3.77 |
| L16T | 4.77 |
| L16K | 3.62 |
| L16H | 4.2 |
| L16M | 4.78 |
| L16W | 2.9 |
| L16E | 3.7 |
| L16A | 3.48 |
| L16Q | 2.69 |
| L16S | 3.82 |
| L16N | 4.12 |
| L16V | 4.22 |
| L21Q | 4.88 |
| L21N | 1.1 |
| L21D | 4.99 |

| Variant | protein stability index |
| --- | --- |
| L21K | 2.71 |
| L21C | 2.13 |
| L21V | 2.59 |
| L21S | 2.58 |
| L21A | 2.44 |
| L21H | 3.31 |
| L21F | 3.33 |
| L21E | 4.73 |
| L21R | 3.48 |
| L21T | 2.68 |
| L21Y | 3.62 |
| L21I | 2.25 |
| L21G | 4.82 |
| E22A | 5.34 |
| E22Q | 5.67 |
| E22M | 5.37 |
| E22I | 5.44 |
| E22W | 5.39 |
| E22P | 5.17 |
| E22N | 5.37 |
| E22T | 5.41 |
| E22V | 5.55 |
| E22R | 5.7 |
| E22F | 5.82 |

| Variant | protein stability index |
| --- | --- |
| E22H | 5.94 |
| E22L | 5.79 |
| E22S | 5.84 |
| E22C | 5.58 |
| E22D | 5.75 |
| E22G | 5.33 |
| E22K | 5.67 |
| E22Y | 5.5 |
| L19Q | 4.27 |
| L19K | 4.95 |
| L19N | 4.52 |
| L19H | 3.85 |
| L19T | 4.7 |
| L19F | 2.97 |
| L19W | 1.11 |
| L19V | 3.86 |
| L19I | 3.98 |
| L19P | 4.67 |
| L19D | 5.17 |
| L19S | 4.91 |
| L19E | 5.17 |
| L19Y | 1.99 |
| L19G | 4.69 |
| L19A | 4.58 |
